Assay results taken from publication doi:10.1101/2024.04.03.587999 (bioRxiv, 2024).

Target: T1, Outer membrane protein A of Acinetobacter baumannii (recombinant AbOmpA) (Acinetobacter baumannii, UniProt Q6RYW5 20-356)
T1 sequence (looked up): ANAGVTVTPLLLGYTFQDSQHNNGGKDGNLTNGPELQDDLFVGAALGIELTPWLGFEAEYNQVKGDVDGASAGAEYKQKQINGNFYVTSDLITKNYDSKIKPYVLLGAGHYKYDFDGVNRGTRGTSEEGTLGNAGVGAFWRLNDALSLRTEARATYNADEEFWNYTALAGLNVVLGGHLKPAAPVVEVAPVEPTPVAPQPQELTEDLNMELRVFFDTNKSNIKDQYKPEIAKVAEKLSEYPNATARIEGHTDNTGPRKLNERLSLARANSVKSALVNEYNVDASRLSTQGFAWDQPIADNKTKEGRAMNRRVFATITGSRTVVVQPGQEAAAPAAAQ
Experiment: SPR

B1: P92 (peptide)
peptide: QMGFMTSPKHSV
B1 was tested, and the Kd was 7.84 nM.
